Laboratory results as given in the Immune Epitope Database (IEDB).
pIC50, pKd: −log10 of the molar value.

What was measured:
HLA-B*39:01 [1] = assay: IEDB peptide-MHC binding, purified MHC/competitive/fluorescence; filed as Kd, often an IC50 or EC50 that approximates it; ≥ and ≤ were set here for values at or beyond the usual limits of such assays; details: source organism: Tetraodon nigroviridis
HLA-B*46:01 [2] = assay: as above
HLA-B*51:01 = assay: as above
HLA-B*27:03 = assay: as above
HLA-A*01:01 = assay: IEDB peptide-MHC binding, purified MHC/direct/fluorescence; filed as Kd, often an IC50 or EC50 that approximates it; ≥ and ≤ were set here for values at or beyond the usual limits of such assays
HLA-C*12:03 = assay: as above
HLA-B*39:01 [3] = assay: as above; details: source organism: Mammarenavirus lassaense
HLA-B*44:02 = assay: as above; details: source organism: Mammarenavirus lassaense
HLA-A*11:01 [4] = assay: as above; details: source organism: Mammarenavirus lassaense
HLA-B*46:01 [5] = assay: as above; details: source organism: Mammarenavirus lassaense
HLA-B*57:01 [6] = assay: as above
HLA-B*27:05 = assay: as above; details: source organism: Mammarenavirus lassaense
HLA-A*03:01 [7] = assay: as above
HLA-B*15:01 [8] = assay: as above; details: source organism: Mammarenavirus lassaense
HLA-B*07:02 [9] = assay: as above; details: source organism: Mammarenavirus lassaense
HLA-A*31:01 = assay: as above; details: source organism: Mammarenavirus lassaense
HLA-A*02:01 [10] = assay: as above; details: source organism: Mammarenavirus lassaense
HLA-B*58:01 = assay: as above
HLA-B*48:01 = assay: as above; details: source organism: Mammarenavirus lassaense
HLA-B*83:01 = assay: IEDB peptide-MHC binding, purified MHC/competitive/fluorescence; filed as Kd, often an IC50 or EC50 that approximates it; ≥ and ≤ were set here for values at or beyond the usual limits of such assays; details: source organism: Yellow fever virus
HLA-B*15:42 = assay: as above; details: source organism: Yellow fever virus
HLA-B*45:06 = assay: as above; details: source organism: Yellow fever virus
HLA-A*11:01 [11] = assay: IEDB peptide-MHC binding, purified MHC/competitive/fluorescence; ≥ and ≤ were set here for values at or beyond the usual limits of such assays
HLA-A*03:01 [12] = assay: as above
HLA-B*07:02 [13] = assay: as above
HLA-A*02:01 [14] = assay: as above; details: source organism: Zaire ebolavirus
HLA-A*26:01 = assay: IEDB peptide-MHC binding, purified MHC/competitive/fluorescence; filed as Kd, often an IC50 or EC50 that approximates it; ≥ and ≤ were set here for values at or beyond the usual limits of such assays
HLA-B*57:01 [15] = assay: as above
HLA-B*15:01 [16] = assay: as above
HLA-B*15:17 [17] = assay: as above; details: source organism: Orthohantavirus sinnombreense
HLA-A*02:01 [18] = assay: as above
HLA-A*02:12 = assay: IEDB peptide-MHC binding, purified MHC/direct/fluorescence; filed as Kd, often an IC50 or EC50 that approximates it; ≥ and ≤ were set here for values at or beyond the usual limits of such assays; details: source organism: Convict Creek 107 virus
HLA-A*29:02 = assay: as above; details: source organism: Convict Creek 107 virus
HLA-A*24:03 = assay: as above; details: source organism: Convict Creek 107 virus
HLA-A*02:16 = assay: as above; details: source organism: Convict Creek 107 virus
HLA-A*02:03 [19] = assay: as above; details: source organism: Convict Creek 107 virus
HLA-A*02:19 = assay: as above; details: source organism: Convict Creek 107 virus
HLA-B*40:01 = assay: as above; details: source organism: Orthohantavirus negraense
HLA-A*02:11 [20] = assay: as above; details: source organism: Convict Creek 107 virus
HLA-A*24:02 = assay: IEDB peptide-MHC binding, purified MHC/competitive/fluorescence; ≥ and ≤ were set here for values at or beyond the usual limits of such assays; details: source organism: Zaire ebolavirus
HLA-B*15:01 [21] = assay: as above; details: source organism: Zaire ebolavirus
HLA-B*15:17 [22] = assay: IEDB peptide-MHC binding, purified MHC/direct/fluorescence; filed as Kd, often an IC50 or EC50 that approximates it; ≥ and ≤ were set here for values at or beyond the usual limits of such assays
HLA-B*18:01 = assay: IEDB peptide-MHC binding, purified MHC/competitive/fluorescence; filed as Kd, often an IC50 or EC50 that approximates it; ≥ and ≤ were set here for values at or beyond the usual limits of such assays; details: source organism: Cryptosporidium parvum Iowa II
HLA-A*03:01 [23] = assay: as above; details: source organism: Cryptosporidium parvum Iowa II
HLA-A*02:03 [24] = assay: as above; details: source organism: Cryptosporidium parvum Iowa II
HLA-A*02:11 [25] = assay: as above; details: source organism: Cryptosporidium parvum Iowa II
[26] = source organism: Tetraodon nigroviridis
[27] = source organism: Mammarenavirus lassaense
[28] = source organism: Vaccinia virus Copenhagen
[29] = source organism: Zaire ebolavirus
[30] = source organism: Orthohantavirus sinnombreense
[31] = source organism: Vaccinia virus WR
[32] = source organism: Mycobacterium tuberculosis
[33] = source organism: Cryptosporidium parvum Iowa II
[34] = source organism: Cryptosporidium parvum

NTFKFGVIY
pKd (HLA-B*39:01 [1]): ≤ 4.70 | pKd (HLA-B*46:01 [2]; [26]): ≤ 4.70 | pKd (HLA-B*51:01; [26]): ≤ 4.70 | pKd (HLA-B*27:03; [26]): ≤ 4.70 | pKd (HLA-A*01:01; source organism: Danio rerio): 6.28 | pKd (HLA-C*12:03; [26]): ≥ 9.00

IEEVMNIVL
pKd (HLA-B*39:01 [3]): 6.02 | pKd (HLA-B*44:02): ≤ 4.70 | pKd (HLA-A*11:01 [4]): ≤ 4.70 | pKd (HLA-B*46:01 [5]): ≤ 4.70 | pKd (HLA-B*57:01 [6]; [27]): ≤ 4.70 | pKd (HLA-B*27:05): ≤ 4.70 | pKd (HLA-A*01:01; [27]): ≤ 4.70 | pKd (HLA-A*03:01 [7]; [27]): ≤ 4.70 | pKd (HLA-B*15:01 [8]): ≤ 4.70 | pKd (HLA-B*07:02 [9]): ≤ 4.70 | pKd (HLA-A*31:01): ≤ 4.70 | pKd (HLA-A*02:01 [10]): ≤ 4.70 | pKd (HLA-B*58:01; [27]): ≤ 4.70 | pKd (HLA-B*48:01): ≤ 4.70

MVIFFMSPK
pKd (HLA-B*83:01): ≤ 5.30 | pKd (HLA-B*15:42): ≤ 5.30 | pKd (HLA-B*45:06): ≤ 5.30

TKITFALKK
pIC50 (HLA-A*11:01 [11]; [28]): 4.96 | pIC50 (HLA-A*03:01 [12]; [28]): 4.40

KVSGTGPCA
pIC50 (HLA-B*07:02 [13]; [29]): ≤ 4.01 | pIC50 (HLA-A*02:01 [14]): ≤ 3.93

KPPKFRAFR
pIC50 (HLA-B*07:02 [13]; source organism: Vaccinia virus): ≤ 3.77

TEFFMSRKL
pKd (HLA-A*26:01; [30]): ≤ 4.70 | pKd (HLA-B*46:01 [2]; [30]): ≤ 4.70 | pKd (HLA-B*57:01 [15]; [30]): ≤ 4.70 | pKd (HLA-B*15:01 [16]; [30]): ≤ 4.70 | pKd (HLA-B*15:17 [17]): ≤ 4.70 | pKd (HLA-B*51:01; [30]): ≤ 4.70 | pKd (HLA-B*27:03; [30]): ≤ 4.70 | pKd (HLA-A*02:01 [18]; [30]): ≤ 4.70 | pKd (HLA-A*02:12): ≤ 4.70 | pKd (HLA-A*29:02): ≤ 4.70 | pKd (HLA-A*03:01 [7]; source organism: Convict Creek 107 virus): ≤ 4.70 | pKd (HLA-A*24:03): ≤ 4.70 | pKd (HLA-A*02:16): ≤ 4.70 | pKd (HLA-A*02:03 [19]): ≤ 4.70 | pKd (HLA-A*02:19): ≤ 4.70 | pKd (HLA-B*40:01): 8.85 | pKd (HLA-A*02:11 [20]): ≤ 4.70

LFPQLSAIA
pIC50 (HLA-A*24:02): 4.86 | pIC50 (HLA-B*07:02 [13]; [29]): ≤ 3.85 | pIC50 (HLA-A*02:01 [14]): 4.49

KGYVVSRRG
pIC50 (HLA-A*03:01 [12]; [31]): ≤ 3.99

IKRTLAAMP
pIC50 (HLA-B*07:02 [13]; [29]): ≤ 3.82

GHGFRFEVK
pIC50 (HLA-A*11:01 [11]; [29]): 5.50 | pIC50 (HLA-A*03:01 [12]; [29]): 5.19

FLSDYGPQL
pKd (HLA-C*12:03; source organism: Mycobacterium tuberculosis variant bovis BCG str. Pasteur 1173P2): 6.63

IVKTVLDHI
pIC50 (HLA-A*24:02): 5.17 | pIC50 (HLA-B*07:02 [13]; [29]): ≤ 3.77 | pIC50 (HLA-A*02:01 [14]): ≤ 4.04

QSVGHMMVI
pIC50 (HLA-A*24:02): 5.42 | pIC50 (HLA-B*15:01 [21]): ≤ 3.84 | pIC50 (HLA-B*07:02 [13]; [29]): 4.46 | pIC50 (HLA-A*02:01 [14]): 5.31

AVIRANNNR
pIC50 (HLA-A*11:01 [11]; [31]): 5.67 | pIC50 (HLA-A*03:01 [12]; [31]): 5.23

RAYWIHLMM
pKd (HLA-B*57:01 [6]; source organism: Mycobacterium tuberculosis str. Haarlem): 6.78 | pKd (HLA-B*15:17 [22]; [32]): 8.66 | pKd (HLA-C*12:03; source organism: Mycobacterium tuberculosis C): 8.70 | pKd (HLA-B*58:01; [32]): 7.02

HHAYQGDYK
pIC50 (HLA-A*11:01 [11]; [29]): ≤ 4.15 | pIC50 (HLA-A*03:01 [12]; [29]): 4.34

ERTDLFFPV
pKd (HLA-A*26:01; [33]): ≤ 4.70 | pKd (HLA-B*46:01 [2]; [33]): ≤ 4.70 | pKd (HLA-B*57:01 [15]; [33]): ≤ 4.70 | pKd (HLA-B*18:01): ≤ 4.70 | pKd (HLA-A*03:01 [23]): ≤ 4.70 | pKd (HLA-B*15:01 [16]; [33]): ≤ 4.70 | pKd (HLA-B*51:01; [33]): ≤ 4.70 | pKd (HLA-A*02:03 [24]): ≤ 4.70 | pKd (HLA-A*02:01 [18]; [33]): ≤ 4.70 | pKd (HLA-A*02:11 [25]): 5.55

KSFGRISVL
pKd (HLA-B*57:01 [6]; [33]): 6.50 | pKd (HLA-B*15:17 [22]; [34]): 9.10 | pKd (HLA-C*12:03; [33]): ≥ 9.00 | pKd (HLA-B*58:01; [34]): 7.75
